# According to the supplement of paper PMC10567573:
# B1: ZNF207 (parent)
# chain: FQPQPVQPQQGYIPPMAQPGLPPV
# B2: PTPN9 (parent)
# chain: ILFSLPPALDWDSVHVPGPHAMTI
# Variants of: B1
# Assay: protein stability index of a GFP-peptide fusion (GPS, HEK-293T) (PSI 1-6); higher = more stable
# Settings: c terminus: a fixed tail appended
# 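Further: lentivirally expressed fusions sorted by FACS into six bins by GFP to DsRed ratio, PSI derived from sequencing read proportions per bin multiplied by bin number.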
row,Variant,protein stability index
1,FQPSPVQPQQGYIPPMAQPGLPPV [Q4S],3.21
2,FQPFPVQPQQGYIPPMAQPGLPPV [Q4F],2.42
3,FQPEPVQPQQGYIPPMAQPGLPPV [Q4E],3.58
4,FQPCPVQPQQGYIPPMAQPGLPPV [Q4C],3.01

# Variants of: B2
# Assay: as above
# Settings: c terminus: a fixed tail appended
row,Variant,protein stability index
1,ILFSLPPALDWDSVHVPGPHAMII [T23I],2.96
2,ILFSLPPALDWDSVHVPGPHAMWI [T23W],2.7
3,ILFSLPPALDWDSVHVPGPHAMYI [T23Y],2.69
4,ILFSLPPALDWDSVHVPGPHAMNI [T23N],3.27
5,ILFSLPPALDWDSVHVPGPHAMEI [T23E],2.33
6,ILFSLPPALDWDSVHVPGPHAMCI [T23C],3.21
7,ILFSLPPALDWDSVHVPGPHAMGI [T23G],3.89
8,ILFSLPPALDWDSVHVPGPHAMAI [T23A],1.49
9,ILFSLPPALDWDSVHVPGPHAMPI [T23P],1.2
10,ILFSLPPALDWDSVHVPGPHAMDI [T23D],2.6
11,ILFSLPPALDWDSVHVPGPHAMHI [T23H],1.88
12,ILFSLPPALDWDSVHVPGPHAMQI [T23Q],2.73
13,ILFSLPPALDWDSVHVPGPHAMFI [T23F],2.25
14,ILFSLPPALDWDSVHVPGPHAMMI [T23M],4.43
15,ILFSLPPALDWDSVHVPGPHAMSI [T23S],2.4
16,ILFSLPPALDWDSVHVPGPHAMVI [T23V],4.05
17,ILFSLPPALDWDSVHVPGPHAMKI [T23K],2.87
18,ILFSLPPALDWDSVHVPGPHAMRI [T23R],3.03
19,ILFSLPPALDWDSVHVPGPHAMLI [T23L],1.76
20,ILFSLPPALDWDSVHVPGPHALTI [M22L],2.77
21,ILFSLPPALDWDSVHVPGPHASTI [M22S],1.82
22,ILFSLPPALDWDSVHVPGPHAFTI [M22F],1.73
23,ILFSLPPALDWDSVHVPGPHAETI [M22E],2.55

row,Variant,protein stability index
1,ILFSLPPALDWDSVHVPGPHARTI [M22R],1.86
2,ILFSLPPALDWDSVHVPGPHAHTI [M22H],1.24
3,ILFSLPPALDWDSVHVPGPHAATI [M22A],2.35
4,ILFSLPPALDWDSVHVPGPHAGTI [M22G],1.67
5,ILFSLPPALDWDSVHVPGPHAPTI [M22P],1.77
6,ILFSLPPALDWDSVHVPGPHATTI [M22T],1.75
7,ILFSLPPALDWDSVHVPGPHANTI [M22N],1.39
8,ILFSLPPALDWDSVHVPGPHAKTI [M22K],1.39
9,ILFSLPPALDWDSVHVPGPHADTI [M22D],1.91
10,ILFSLPPALDWDSVHVPGPHAVTI [M22V],2.64
11,ILFSLPPALDWDSVHVPGPHAWTI [M22W],3.35
12,ILFSLPPALDWDSVHVPGPHAQTI [M22Q],2.04
13,ILFSLPPALDWDSVHVPGPHAITI [M22I],2.93
14,ILFSLPPALDWDSVHVPGPKAMTI [H20K],2.76
15,ILFSLPPALDWDSVHVPGPTAMTI [H20T],2.16
16,ILFSLPPALDWDSVHVPGPLAMTI [H20L],2.79
17,ILFSLPPALDWDSVHVPGPQAMTI [H20Q],2.31
18,ILFSLPPALDWDSVHVPGPRAMTI [H20R],2.12
19,ILFSLPPALDWDSVHVPGPFAMTI [H20F],3.16
20,ILFSLPPALDWDSVHVPGPPAMTI [H20P],1.82
21,ILFSLPPALDWDSVHVPGPNAMTI [H20N],2.59
22,ILFSLPPALDWDSVHVPGPMAMTI [H20M],2.88
23,ILFSLPPALDWDSVHVPGPDAMTI [H20D],2.29

row,Variant,protein stability index
1,ILFSLPPALDWDSVHVPGPIAMTI [H20I],2.93
2,ILFSLPPALDWDSVHVPGPCAMTI [H20C],2.58
3,ILFSLPPALDWDSVHVPGPEAMTI [H20E],1.59
4,ILFSLPPALDWDSVHVPGPAAMTI [H20A],2.01
5,ILFSLPPALDWDSVHVPGPGAMTI [H20G],2.69
6,ILFSLPPALDWDSVHVPGPYAMTI [H20Y],3.11
7,ILFSLPPALDWDSVHVPGPSAMTI [H20S],2.48
8,ILFSLPPALDWDSVHVPGPHPMTI [A21P],2.84
9,ILFSLPPALDWDSVHVPGPHDMTI [A21D],2.71
10,ILFSLPPALDWDSVHVPGPHGMTI [A21G],2.96
11,ILFSLPPALDWDSVHVPGPHIMTI [A21I],3.19
12,ILFSLPPALDWDSVHVPGPHQMTI [A21Q],2.63
13,ILFSLPPALDWDSVHVPGPHYMTI [A21Y],3.24
14,ILFSLPPALDWDSVHVPGPHEMTI [A21E],2.64
15,ILFSLPPALDWDSVHVPGPHTMTI [A21T],2.35
16,ILFSLPPALDWDSVHVPGPHSMTI [A21S],3.61
17,ILFSLPPALDWDSVHVPGPHLMTI [A21L],2.86
18,ILFSLPPALDWDSVHVPGPHRMTI [A21R],1.86
19,ILFSLPPALDWDSVHVPGPHHMTI [A21H],2.88
20,ILFSLPPALDWDSVHVPGPHVMTI [A21V],4.21
21,ILFSLPPALDWDSVHVPGPHMMTI [A21M],2.59
22,ILFSLPPALDWDSVHVPGPHKMTI [A21K],3.13
23,ILFSLPPALDWDSVHVPGPHWMTI [A21W],1.23

row,Variant,protein stability index
1,ILFSLPPALDWDSVHVPGPHCMTI [A21C],3.09
2,ILFSLPPALDWDSVHVPGPHNMTI [A21N],1.75
3,ILFSLPPALDWDSVHVPGPHAMTD [I24D],1.83
4,ILFSLPPALDWDSVHVPGPHAMTN [I24N],1.71
5,ILFSLPPALDWDSVHVPGPHAMTP [I24P],1.85
6,ILFSLPPALDWDSVHVPGPHAMTL [I24L],1.99
7,ILFSLPPALDWDSVHVPGPHAMTH [I24H],1.63
8,ILFSLPPALDWDSVHVPGPHAMTV [I24V],2.31
9,ILFSLPPALDWDSVHVPGPHAMTS [I24S],1.57
10,ILFSLPPALDWDSVHVPGPHAMTE [I24E],1.69
11,ILFSLPPALDWDSVHVPGPHAMTR [I24R],1.71
12,ILFSLPPALDWDSVHVPGPHAMTW [I24W],3.21
13,ILFSLPPALDWDSVHVPGPHAMTM [I24M],2.69
14,ILFSLPPALDWDSVHVPGPHAMTC [I24C],2.43
15,ILFSLPPALDWDSVHVPGPHAMTT [I24T],1.97
16,ILFSLPPALDWDSVHVPGPHAMTA [I24A],1.55
17,ILFSLPPALDWDSVHVPGPHAMTY [I24Y],1.73
18,ILFSLPPALDWDSVHVPGPHAMTQ [I24Q],2.71
19,ILFSLPPALDWDSVHVPGPHAMTK [I24K],2.06
20,ILFSLPPALDWDSVHVPGPHAMTF [I24F],3.71
21,ILFSLPPALDWDSVHVPGPHAMTG [I24G],2.29
